# Results as given in paper PMC11446282.
# System: B55α interactors
# Assay: MS analysis of B55α WT, V228A, I284A, S287A and D340A immunopurifications
# Format: binding, human
# Details: log2 ratio of interactor abundance, 4 replicates each, normalised to bait B55α; for log2_ratio_D340_WT: B55α D340A vs WT immunopurification; for log2_ratio I284_WT: B55α I284A vs WT immunopurification; for log2_ratio S287_WT: B55α S287A vs WT immunopurification; for log2_ratio V228_WT: B55α V228A vs WT immunopurification
# Description: Standard cloning techniques were used throughout. Point mutations were introduced by whole plasmid polymerase chain reaction (PCR). All constructs were fully sequenced. Synthetic DNA was purchased from GeneArt, Life Technologies and cloned into pcDNA5/FRT/TO (Invitrogen) expression vector containing YFP, resulting in the indicated YFP fusion proteins. These constructs were transiently transfected into HeLa cells 24 hours before harvesting cells. Cells were lysed in lysis buffer [50 mM tris-HCl (pH 7.5), 50 mM NaCl, 1 mM EDTA, 1 mM […], and 0.1% NP-40]. Complexes were immunoprecipitated at 4°C in lysis buffer with green fluorescent protein (GFP)–Trap (ChromoTek) and washed in lysis buffer. Precipitated protein complexes were washed three times in lysis buffer, eluted in 2× SDS sample buffer, and subjected to Western blotting or MS as indicated.
# Pull-downs were analyzed on a Q-Exactive Plus quadrupole or Fusion Orbitrap Lumos mass spectrometer (Thermo Fisher Scientific) equipped with Easy-nLC 1000 or […] (Thermo Fisher Scientific) and nanospray source (Thermo Fisher Scientific).
# Static modifications included carbamidomethylcysteine, and variable modifications included oxidized methionine and STY phosphorylation. Searches were filtered using orthogonal measures including mass measurement accuracy (±3 parts per million), Xcorr for charges from +2 to +4, and dCn targeting a <1% false discovery rate at the peptide level. Quantification of LC-MS/MS spectra was performed using MassChroQ ([57]) and the iBAQ method ([58]). All data were analyzed using R 4.3.0. Missing values were imputed from a normal distribution. […] In each dataset, the abundance of the protein of interest was normalized to be equal across all samples. Statistical analyses were done using a two-tailed Student’s t test.
Molecule,log2_ratio_D340_WT,log2_ratio I284_WT,log2_ratio S287_WT,log2_ratio V228_WT
"SIK2_HUMAN (protein, UniProt Q9H0K1 1-926, looked up) Serine/threonine-protein …: MVMADGPRHLQRGPVRVGFYDIEGTLGKGNFAVVKLGRHRITKTEVAIKIIDKSQLDAVNLEKIYREVQIMKMLDHPHIIKLYQVMETKSMLYLVTEYAKNGEIFDYLANHGRLNESEARRKFWQILSAVDYCHGRKIVHRDLKAENLLLDNNMNIKIADFGFGNFFKSGELLATWCGSPPYAAPEVFEGQQYEGPQLDIWSMGVVLYVLVCGALPFDGPTLPILRQRVLEGRFRIPYFMSEDCEHLIRRMLVLDPSKRLTIAQIKEHKWMLIEVPVQRPVLYPQEQENEPSIGEFNEQVLRLMHSLGIDQQKTIESLQNKSYNHFAAIYFLLVERLKSHRSSFPVEQRLDGRQRRPSTIAEQTVAKAQTVGLPVTMHSPNMRLLRSALLPQASNVEAFSFPASGCQAEAAFMEEECVDTPKVNGCLLDPVPPVLVRKGCQSLPSNMMETSIDEGLETEGEAEEDPAHAFEAFQSTRSGQRRHTLSEVTNQLVVMPGAGKIFSMNDSPSLDSVDSEYDMGSVQRDLNFLEDNPSLKDIMLANQPSPRMTSPFISLRPTNPAMQALSSQKREVHNRSPVSFREGRRASDTSLTQGIVAFRQHLQNLARTKGILELNKVQLLYEQIGPEADPNLAPAAPQLQDLASSCPQEEVSQQQESVSTLPASVHPQLSPRQSLETQYLQHRLQKPSLLSKAQNTCQLYCKEPPRSLEQQLQEHRLQQKRLFLQKQSQLQAYFNQMQIAESSYPQPSQQLPLPRQETPPPSQQAPPFSLTQPLSPVLEPSSEQMQYSPFLSQYQEMQLQPLPSTSGPRAAPPLPTQLQQQQPPPPPPPPPPRQPGAAPAPLQFSYQTCELPSAASPAPDYPTPCQYPVDGAQQSDLTGPDCPRSPGLQEAPSSYDPLALSELPGLFDCEMLDAVDPQHNGYVLVN",2.13,-0.65,-1.90,-3.24
"AIFM2_HUMAN (protein, UniProt Q9BRQ8 2-373, looked up) Ferroptosis suppressor …: GSQVSVESGALHVVIVGGGFGGIAAASQLQALNVPFMLVDMKDSFHHNVAALRASVETGFAKKTFISYSVTFKDNFRQGLVVGIDLKNQMVLLQGGEALPFSHLILATGSTGPFPGKFNEVSSQQAAIQAYEDMVRQVQRSRFIVVVGGGSAGVEMAAEIKTEYPEKEVTLIHSQVALADKELLPSVRQEVKEILLRKGVQLLLSERVSNLEELPLNEYREYIKVQTDKGTEVATNLVILCTGIKINSSAYRKAFESRLASSGALRVNEHLQVEGHSNVYAIGDCADVRTPKMAYLAGLHANIAVANIVNSVKQRPLQAYKPGALTFLLSMGRNDGVGQISGFYVGRLMVRLTKSRDLFVSTSWKTMRQSPP",-0.14,-0.15,0.33,-0.53
"RBM7_HUMAN (protein, UniProt Q9Y580 2-266, looked up) RNA-binding protein 7: GAAAAEADRTLFVGNLETKVTEELLFELFHQAGPVIKVKIPKDKDGKPKQFAFVNFKHEVSVPYAMNLLNGIKLYGRPIKIQFRSGSSHAPQDVSLSYPQHHVGNSSPTSTSPSRYERTMDNMTSSAQIIQRSFSSPENFQRQAVMNSALRQMSYGGKFGSSPLDQSGFSPSVQSHSHSFNQSSSSQWRQGTPSSQRKVRMNSYPYLADRHYSREQRYTDHGSDHHYRGKRDDFFYEDRNHDDWSHDYDNRRDSSRDGKWRSSRH",-4.64,-3.46,0.85,-3.26
"PPME1_HUMAN (protein, UniProt Q9Y570 2-386, looked up) Protein phosphatase …: SALEKSMHLGRLPSRPPLPGSGGSQSGAKMRMGPGRKRDFSPVPWSQYFESMEDVEVENETGKDTFRVYKSGSEGPVLLLLHGGGHSALSWAVFTAAIISRVQCRIVALDLRSHGETKVKNPEDLSAETMAKDVGNVVEAMYGDLPPPIMLIGHSMGGAIAVHTASSNLVPSLLGLCMIDVVEGTAMDALNSMQNFLRGRPKTFKSLENAIEWSVKSGQIRNLESARVSMVGQVKQCEGITSPEGSKSIVEGIIEEEEEDEEGSESISKRKKEDDMETKKDHPYTWRIELAKTEKYWDGWFRGLSNLFLSCPIPKLLLLAGVDRLDKDLTIGQMQGKFQMQVLPQCGHAVHEDAPDKVAEAVATFLIRHRFAEPIGGFQCVFPGC",-3.73,-7.04,-10.17,-9.33
"AMOL2_HUMAN (protein, UniProt Q9Y2J4 1-779, looked up) Angiomotin-like protein 2: MRTLEDSSGTVLHRLIQEQLRYGNLTETRTLLAIQQQALRGGAGTGGTGSPQASLEILAPEDSQVLQQATRQEPQGQEHQGGENHLAENTLYRLCPQPSKGEELPTYEEAKAHSQYYAAQQAGTRPHAGDRDPRGAPGGSRRQDEALRELRHGHVRSLSERLLQLSLERNGARAPSHMSSSHSFPQLARNQQGPPLRGPPAEGPESRGPPPQYPHVVLAHETTTAVTDPRYRARGSPHFQHAEVRILQAQVPPVFLQQQQQYQYLQQSQEHPPPPHPAALGHGPLSSLSPPAVEGPVSAQASSATSGSAHLAQMEAVLRENARLQRDNERLQRELESSAEKAGRIEKLESEIQRLSEAHESLTRASSKREALEKTMRNKMDSEMRRLQDFNRDLRERLESANRRLASKTQEAQAGSQDMVAKLLAQSYEQQQEQEKLEREMALLRGAIEDQRRRAELLEQALGNAQGRAARAEEELRKKQAYVEKVERLQQALGQLQAACEKREQLELRLRTRLEQELKALRAQQRQAGAPGGSSGSGGSPELSALRLSEQLREKEEQILALEADMTKWEQKYLEERAMRQFAMDAAATAAAQRDTTLIRHSPQPSPSSSFNEGLLTGGHRHQEMESRLKVLHAQILEKDAVIKVLQQRSRRDPGKAIQGSLRPAKSVPSVFAAAAAGTQGWQGLSSSERQTADAPARLTTDRAPTEEPVVTAPPAAHAKHGSRDGSTQTEGPPDSTSTCLPPEPDSLLGCSSSQRAASLDSVATSRVQDLSDMVEILI",2.17,3.49,2.56,–
"ACOT8_HUMAN (protein, UniProt O14734 1-319, looked up) Acyl-coenzyme A thioesterase 8: MSSPQAPEDGQGCGDRGDPPGDLRSVLVTTVLNLEPLDEDLFRGRHYWVPAKRLFGGQIVGQALVAAAKSVSEDVHVHSLHCYFVRAGDPKLPVLYQVERTRTGSSFSVRSVKAVQHGKPIFICQASFQQAQPSPMQHQFSMPTVPPPEELLDCETLIDQYLRDPNLQKRYPLALNRIAAQEVPIEIKPVNPSPLSQLQRMEPKQMFWVRARGYIGEGDMKMHCCVAAYISDYAFLGTALLPHQWQHKVHFMVSLDHSMWFHAPFRADHWMLYECESPWAGGSRGLVHGRLWRQDGVLAVTCAQEGVIRVKPQVSESKL",-0.23,–,0.94,–
"TBCD4_HUMAN (protein, UniProt O60343 1-1298, looked up) TBC1 domain family member 4: MEPPSCIQDEPFPHPLEPEPGVSAQPGPGKPSDKRFRLWYVGGSCLDHRTTLPMLPWLMAEIRRRSQKPEAGGCGAPAAREVILVLSAPFLRCVPAPGAGASGGTSPSATQPNPAVFIFEHKAQHISRFIHNSHDLTYFAYLIKAQPDDPESQMACHVFRATDPSQVPDVISSIRQLSKAAMKEDAKPSKDNEDAFYNSQKFEVLYCGKVTVTHKKAPSSLIDDCMEKFSLHEQQRLKIQGEQRGPDPGEDLADLEVVVPGSPGDCLPEEADGTDTHLGLPAGASQPALTSSRVCFPERILEDSGFDEQQEFRSRCSSVTGVQRRVHEGSQKSQPRRRHASAPSHVQPSDSEKNRTMLFQVGRFEINLISPDTKSVVLEKNFKDISSCSQGIKHVDHFGFICRESPEPGLSQYICYVFQCASESLVDEVMLTLKQAFSTAAALQSAKTQIKLCEACPMHSLHKLCERIEGLYPPRAKLVIQRHLSSLTDNEQADIFERVQKMKPVSDQEENELVILHLRQLCEAKQKTHVHIGEGPSTISNSTIPENATSSGRFKLDILKNKAKRSLTSSLENIFSRGANRMRGRLGSVDSFERSNSLASEKDYSPGDSPPGTPPASPPSSAWQTFPEEDSDSPQFRRRAHTFSHPPSSTKRKLNLQDGRAQGVRSPLLRQSSSEQCSNLSSVRRMYKESNSSSSLPSLHTSFSAPSFTAPSFLKSFYQNSGRLSPQYENEIRQDTASESSDGEGRKRTSSTCSNESLSVGGTSVTPRRISWRQRIFLRVASPMNKSPSAMQQQDGLDRNELLPLSPLSPTMEEEPLVVFLSGEDDPEKIEERKKSKELRSLWRKAIHQQILLLRMEKENQKLEASRDELQSRKVKLDYEEVGACQKEVLITWDKKLLNCRAKIRCDMEDIHTLLKEGVPKSRRGEIWQFLALQYRLRHRLPNKQQPPDISYKELLKQLTAQQHAILVDLGRTFPTHPYFSVQLGPGQLSLFNLLKAYSLLDKEVGYCQGISFVAGVLLLHMSEEQAFEMLKFLMYDLGFRKQYRPDMMSLQIQMYQLSRLLHDYHRDLYNHLEENEISPSLYAAPWFLTLFASQFSLGFVARVFDIIFLQGTEVIFKVALSLLSSQETLIMECESFENIVEFLKNTLPDMNTSEMEKIITQVFEMDISKQLHAYEVEYHVLQDELQESSYSCEDSETLEKLERANSQLKRQNMDLLEKLQVAHTKIQALESNLENLLTRETKMKSLIRTLEQEKMAYQKTVEQLRKLLPADALVNCDLLLRDLNCNPNNKAKIGNKP",-3.17,-2.61,-1.57,-1.50
"IER2_HUMAN (protein, UniProt Q9BTL4 1-223, looked up) Immediate early response gene …: MEVQKEAQRIMTLSVWKMYHSRMQRGGLRLHRSLQLSLVMRSARELYLSAKVEALEPEVSLPAALPSDPRLHPPREAESTAETATPDGEHPFPEPMDTQEAPTAEETSACCAPRPAKVSRKRRSSSLSDGGDAGLVPSKKARLEEKEEEEGASSEVADRLQPPPAQAEGAFPNLARVLQRRFSGLLNCSPAAPPTAPPACEAKPACRPADSMLNVLVRAVVAF",-8.18,-0.03,0.35,-2.82
